# From PMC4958273, “Expression and preliminary characterization of human MICU2” (Biology Open, 2016)
# B1: MICU2-NΔ84-CΔ28 (domain or fragment, human, UniProt Q8IYU8 84-406, looked up)
# chain: SLRKQRFMQFSSLEHEGEYYMTPRDFLFSVMFEQMERKTSVKKLTKKDIEDTLSGIQTAGCGSTFFRDLGDKGLISYTEYLFLLTILTKPHSGFHVAFKMLDTDGNEMIEKREFFKLQKIISKQDDLMTVKTNETGYQEAIVKEPEINTTLQMRFFGKRGQRKLHYKEFRRFMENLQTEIQEMEFLQFSKGLSFMRKEDFAEWLLFFTNTENKDIYWKNVREKLSAGESISLDEFKSFCHFTTHLEDFAIAMQMFSLAHRPVRLAEFKRAVKVATGQELSNNILDTVFKIFDLDGDECLSHEEFLGVLKNRMHRGLWVPQHQS
# notes: human MICU2 (BC031089.1), N-terminal deletion starting at amino acid 84, the C-terminal 28 amino acids deleted; lacks Cys413; Predicted molecular weight ~40 kDa; source: E. coli BL21 (DE3); purified (Ni-NTA, SEC) for MALLS; in lysate (cells mixed and sonicated together) for the pull-down; not shown: His-tag, N-terminal, kept
# Molecular target: the molecule itself
# Assay: SEC-MALS; Ca2+-bound condition (5 mM CaCl2); protein at 0.5-2.5 mg/ml, 200 µl injected, KW-G and KW-803 columns, 0.5 ml/min; monomer to dimer
protein,measurement,value
B1,stoichiometry N,2
